Assay results as given in US20150344570A1 (published 2015).

T1: FcγRIIb extracellular domain with C-terminal His tag (human, UniProt P31994 43-217)
T1 construct: extracellular domain; also called 2b; FcgRIIb; not shown: His tag at the C terminus
T1 sequence (looked up): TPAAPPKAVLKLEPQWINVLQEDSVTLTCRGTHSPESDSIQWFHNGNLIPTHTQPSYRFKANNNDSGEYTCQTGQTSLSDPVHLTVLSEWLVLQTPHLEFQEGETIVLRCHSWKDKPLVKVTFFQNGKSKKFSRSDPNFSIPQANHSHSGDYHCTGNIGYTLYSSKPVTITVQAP

T2: FcγRIIb (human, UniProt P31994 43-217)
T2 construct: extracellular domain; Soluble extracellular domain with C-terminal His tag, used as analyte; also called FcgRIIb; CD32B; not shown: His tag at the C terminus
T2 sequence (looked up): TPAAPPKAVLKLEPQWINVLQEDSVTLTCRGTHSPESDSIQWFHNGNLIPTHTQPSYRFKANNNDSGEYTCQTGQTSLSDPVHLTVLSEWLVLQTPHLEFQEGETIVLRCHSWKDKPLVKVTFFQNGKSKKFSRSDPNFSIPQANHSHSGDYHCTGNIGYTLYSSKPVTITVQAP


Assays:
[1] = molecular target: T1, FcγRIIb extracellular domain with …; assay: SPR (Biacore), relative to GpH7-A5/GpH7-B3/GpL16-k0 = 100
[2] = molecular target: T3, FcγRIIIa extracellular domain with C-terminal His tag (human, UniProt P08637 17-208); assay: as above
T3 construct: extracellular domain; also called 3a; FcgRIIIa; not shown: His tag at the C terminus
T3 sequence (P08637 17-208): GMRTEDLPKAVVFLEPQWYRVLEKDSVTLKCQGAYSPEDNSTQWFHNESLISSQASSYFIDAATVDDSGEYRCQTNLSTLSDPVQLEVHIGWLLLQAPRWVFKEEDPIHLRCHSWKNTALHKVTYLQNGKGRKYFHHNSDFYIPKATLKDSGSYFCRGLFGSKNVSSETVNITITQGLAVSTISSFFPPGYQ

FcγRIa = molecular target: T4, FcγRIa (human, UniProt P12314 16-292); assay: SPR (Biacore), captured antibody, FcγR as analyte, relative binding
T4 construct: extracellular domain; Soluble extracellular domain with C-terminal His tag, used as analyte; also called FcgRI; CD64; not shown: His tag at the C terminus
T4 sequence (P12314 16-292): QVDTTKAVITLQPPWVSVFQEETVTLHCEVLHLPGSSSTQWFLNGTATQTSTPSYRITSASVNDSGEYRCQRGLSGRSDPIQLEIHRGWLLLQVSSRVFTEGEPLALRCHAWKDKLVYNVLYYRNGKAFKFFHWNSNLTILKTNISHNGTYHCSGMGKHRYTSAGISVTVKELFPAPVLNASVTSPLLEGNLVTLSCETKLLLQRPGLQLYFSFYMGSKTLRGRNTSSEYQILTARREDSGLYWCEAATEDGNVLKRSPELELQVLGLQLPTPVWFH

FcγRIIb = molecular target: T2, FcγRIIb; assay: as above

| Binder | He/Con_2b [1] | He/Con_3a [2] | He/Con_1a (FcγRIa) | He/Con_2b (FcγRIIb) |
| --- | --- | --- | --- | --- |
| GpH7-A5/GpH7-B3 variant A327_01G/GpL16-k0 (antibody, human IgG1, kappa, IgG1, anti-glypican-3; also called He Ab) heavy 1: not shown heavy 2: not shown light: DIVMTQSPLSLPVTPGEPASISCQASESLVHSNRNTYLHWYLQKPGQSPQLLIYKVSNRFSGVPDRFSGSGSGTDFTLKISRVEAEDVGVYYCSQNTHVPPTFGQGTKVEIERTVAAPSVFIFPPSDEQLKSGTASVVCLLNNFYPREAKVQWKVDNALQSGNSQESVTEQDSKDSTYSLSSTLTLSKADYEKHKVYACEVTHQGLSSPVTKSFNRGEC | 116 % (control = 100) | 72.4 % (control = 100) | – | – |
| GpH7-A5/GpH7-B3 variant H268_05P/GpL16-k0 (antibody, human IgG1, kappa, IgG1, anti-glypican-3; also called He Ab) heavy 1: not shown heavy 2: not shown light: DIVMTQSPLSLPVTPGEPASISCQASESLVHSNRNTYLHWYLQKPGQSPQLLIYKVSNRFSGVPDRFSGSGSGTDFTLKISRVEAEDVGVYYCSQNTHVPPTFGQGTKVEIERTVAAPSVFIFPPSDEQLKSGTASVVCLLNNFYPREAKVQWKVDNALQSGNSQESVTEQDSKDSTYSLSSTLTLSKADYEKHKVYACEVTHQGLSSPVTKSFNRGEC | 116 % (control = 100) | 76.4 % (control = 100) | – | – |
| GpH7-A5/GpH7-B3 variant H268_01G/GpL16-k0 (antibody, human IgG1, kappa, IgG1, anti-glypican-3; also called He Ab) heavy 1: not shown heavy 2: not shown light: DIVMTQSPLSLPVTPGEPASISCQASESLVHSNRNTYLHWYLQKPGQSPQLLIYKVSNRFSGVPDRFSGSGSGTDFTLKISRVEAEDVGVYYCSQNTHVPPTFGQGTKVEIERTVAAPSVFIFPPSDEQLKSGTASVVCLLNNFYPREAKVQWKVDNALQSGNSQESVTEQDSKDSTYSLSSTLTLSKADYEKHKVYACEVTHQGLSSPVTKSFNRGEC | 144 % (control = 100) | 96.7 % (control = 100) | – | – |
| GpH7-A5/GpH7-B3 variant H268_15Y/GpL16-k0 (antibody, human IgG1, kappa, IgG1, anti-glypican-3; also called He Ab) heavy 1: not shown heavy 2: not shown light: DIVMTQSPLSLPVTPGEPASISCQASESLVHSNRNTYLHWYLQKPGQSPQLLIYKVSNRFSGVPDRFSGSGSGTDFTLKISRVEAEDVGVYYCSQNTHVPPTFGQGTKVEIERTVAAPSVFIFPPSDEQLKSGTASVVCLLNNFYPREAKVQWKVDNALQSGNSQESVTEQDSKDSTYSLSSTLTLSKADYEKHKVYACEVTHQGLSSPVTKSFNRGEC | 106 % (control = 100) | 97.5 % (control = 100) | – | – |
| GpH7-A5/GpH7-B3 variant H268_03V/GpL16-k0 (antibody, human IgG1, kappa, IgG1, anti-glypican-3; also called He Ab) heavy 1: not shown heavy 2: not shown light: DIVMTQSPLSLPVTPGEPASISCQASESLVHSNRNTYLHWYLQKPGQSPQLLIYKVSNRFSGVPDRFSGSGSGTDFTLKISRVEAEDVGVYYCSQNTHVPPTFGQGTKVEIERTVAAPSVFIFPPSDEQLKSGTASVVCLLNNFYPREAKVQWKVDNALQSGNSQESVTEQDSKDSTYSLSSTLTLSKADYEKHKVYACEVTHQGLSSPVTKSFNRGEC | 114 % (control = 100) | 92.3 % (control = 100) | – | – |

Continued, values first:

| He/Con_2b [1] | He/Con_3a [2] | He/Con_1a (FcγRIa) | He/Con_2b (FcγRIIb) | Binder |
| --- | --- | --- | --- | --- |
| – | – | 112 % of GpH7-A5/GpH7-B3/GpL16-k0 | 55.6 % of GpH7-A5/GpH7-B3/GpL16-k0 | GpH7-A5/GpH7-B3 variant Y300_14T/GpL16-k0 (antibody, human IgG1, kappa, He Ab: mutation in one H chain only; also called He Ab) heavy 1: not shown heavy 2: not shown light: DIVMTQSPLSLPVTPGEPASISCQASESLVHSNRNTYLHWYLQKPGQSPQLLIYKVSNRFSGVPDRFSGSGSGTDFTLKISRVEAEDVGVYYCSQNTHVPPTFGQGTKVEIERTVAAPSVFIFPPSDEQLKSGTASVVCLLNNFYPREAKVQWKVDNALQSGNSQESVTEQDSKDSTYSLSSTLTLSKADYEKHKVYACEVTHQGLSSPVTKSFNRGEC |
| – | – | 111 % of GpH7-A5/GpH7-B3/GpL16-k0 | 53.9 % of GpH7-A5/GpH7-B3/GpL16-k0 | GpH7-A5/GpH7-B3 variant Y300_13S/GpL16-k0 (antibody, human IgG1, kappa, He Ab: mutation in one H chain only; also called He Ab) heavy 1: not shown heavy 2: not shown light: DIVMTQSPLSLPVTPGEPASISCQASESLVHSNRNTYLHWYLQKPGQSPQLLIYKVSNRFSGVPDRFSGSGSGTDFTLKISRVEAEDVGVYYCSQNTHVPPTFGQGTKVEIERTVAAPSVFIFPPSDEQLKSGTASVVCLLNNFYPREAKVQWKVDNALQSGNSQESVTEQDSKDSTYSLSSTLTLSKADYEKHKVYACEVTHQGLSSPVTKSFNRGEC |
| 148 % (control = 100) | 84.8 % (control = 100) | – | – | GpH7-A5/GpH7-B3 variant K326_20W/GpL16-k0 (antibody, human IgG1, kappa, IgG1, anti-glypican-3; also called He Ab) heavy 1: not shown heavy 2: not shown light: DIVMTQSPLSLPVTPGEPASISCQASESLVHSNRNTYLHWYLQKPGQSPQLLIYKVSNRFSGVPDRFSGSGSGTDFTLKISRVEAEDVGVYYCSQNTHVPPTFGQGTKVEIERTVAAPSVFIFPPSDEQLKSGTASVVCLLNNFYPREAKVQWKVDNALQSGNSQESVTEQDSKDSTYSLSSTLTLSKADYEKHKVYACEVTHQGLSSPVTKSFNRGEC |
| 101 % (control = 100) | 28 % (control = 100) | – | – | GpH7-A5/GpH7-B3 variant N325_01G/GpL16-k0 (antibody, human IgG1, kappa, IgG1, anti-glypican-3; also called He Ab) heavy 1: not shown heavy 2: not shown light: DIVMTQSPLSLPVTPGEPASISCQASESLVHSNRNTYLHWYLQKPGQSPQLLIYKVSNRFSGVPDRFSGSGSGTDFTLKISRVEAEDVGVYYCSQNTHVPPTFGQGTKVEIERTVAAPSVFIFPPSDEQLKSGTASVVCLLNNFYPREAKVQWKVDNALQSGNSQESVTEQDSKDSTYSLSSTLTLSKADYEKHKVYACEVTHQGLSSPVTKSFNRGEC |
| 204 % (control = 100) | 75.5 % (control = 100) | – | – | GpH7-A5/GpH7-B3 variant P238_08L/GpL16-k0 (antibody, human IgG1, kappa, IgG1, anti-glypican-3; also called He Ab) heavy 1: not shown heavy 2: not shown light: DIVMTQSPLSLPVTPGEPASISCQASESLVHSNRNTYLHWYLQKPGQSPQLLIYKVSNRFSGVPDRFSGSGSGTDFTLKISRVEAEDVGVYYCSQNTHVPPTFGQGTKVEIERTVAAPSVFIFPPSDEQLKSGTASVVCLLNNFYPREAKVQWKVDNALQSGNSQESVTEQDSKDSTYSLSSTLTLSKADYEKHKVYACEVTHQGLSSPVTKSFNRGEC |
